Results on six substances are retold here after publication PMC11481913, “Rational design of a flavoenzyme for aerobic nicotine catabolism” (mBio, 2024).

A word on the Km: it is the concentration of substrate that gives half-maximal velocity. As usually defined, the kcat is the number of substrate molecules converted per active site and unit of time at saturation. One may read the kcat/Km as the second-order rate constant that governs catalysis at low substrate concentration.

The data set concerns CNCCCC(=O)c1cccnc1. Put plainly: purified protein. It is filed as biochemical, Pseudomonas putida. Particulars: Tris-HCl pH 8.0, 30 C, O2 as acceptor.
On to Pnao (Pseudomonas putida S16), for which the Km worked out at 0.032 ± 0.001 mM, the kcat came to 197 ± 1 s⁻¹ and the kcat/Km was 6.1e+06 M⁻¹ s⁻¹.
Taken in the same sequence, the figures for Pnao (Pseudomonas putida S16; F388A) were 0.054 ± 0.001 mM, 0.75 ± 0.01 s⁻¹ and 14000 M⁻¹ s⁻¹.
Turning to “Pnao (Pseudomonas putida S16; N224G/W220Y)”, the Michaelis constant (Km) is on record as 0.15 ± 0.00 mM, the kcat was determined as 135 ± 2 s⁻¹ and the kcat/Km was 910000 M⁻¹ s⁻¹.
The like results for “Pnao (Pseudomonas putida S16; N224I/W220Y)” were, in that order, 0.57 ± 0.05 mM, 383 ± 19 s⁻¹ and 680000 M⁻¹ s⁻¹.
Pnao (Pseudomonas putida S16; R96A): the Km turned out to be 0.056 ± 0.001 mM, the kcat stood at 0.75 ± 0.06 s⁻¹ and the kcat/Km turned out to be 13000 M⁻¹ s⁻¹.
Taken in the same sequence, the figures for “Pnao (Pseudomonas putida S16; R96A/S461A)” were 0.083 ± 0.012 mM, 0.39 ± 0.01 s⁻¹ and 4700 M⁻¹ s⁻¹.
